Source: patent US20120316071A1 (published 2012)

Columns and labels:
[1] = biological target: T1, rHuman Erythropoietin R/Fc Chimera, CF (R&D Systems Cat#963-ER) (human, UniProt P19235 25-250); experiment: Multispot ECL (MSD), antigen spotted on plate, Fab 125 nM; blank spot 403
T1 construct: Bought recombinant protein; also called EPO R/Fc; Epo R; Fc part of the bought chimera not given
T1 sequence (looked up): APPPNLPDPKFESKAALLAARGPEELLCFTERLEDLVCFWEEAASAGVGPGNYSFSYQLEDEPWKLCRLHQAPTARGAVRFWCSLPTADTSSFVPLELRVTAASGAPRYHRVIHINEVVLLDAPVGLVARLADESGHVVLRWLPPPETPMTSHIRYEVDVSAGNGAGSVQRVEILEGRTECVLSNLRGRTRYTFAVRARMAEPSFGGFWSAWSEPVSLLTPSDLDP

[2] = biological target: T2, rHuman Notch-1/Fc Chimera, CF (R&D Systems Cat#3647-TK) (human, UniProt P46531 19-526); experiment: as above
T2 construct: Bought recombinant protein; Fc part of the bought chimera not given

[3] = biological target: T3, rHuman IGF-1 sR, CF (R&D Systems Cat#391-GR) (human, UniProt P08069 31-932); experiment: as above
T3 construct: Bought recombinant soluble receptor; also called insulin-like growth factor-1 soluble receptor

[4] = biological target: T4, Recombinant Human DLL4 (R&D Systems Cat#1506-D4/CF) (human, UniProt Q9NR61 27-524); experiment: as above
T4 construct: Bought recombinant protein; also called rHuman DLL4; delta-like protein 4

[5] = biological target: T5, rHuman Erythropoietin R/Fc Chimera, CF (R&D Systems Cat#963-ER) (human, UniProt P19235 25-250); experiment: Multispot ECL (MSD) titration; antigen spotted on plate; Fab 930 nM; blank spot 1206
T5 construct: Bought Fc chimera; also called EPO R/Fc; EPO R; Fc part of the bought chimera not given
T5 sequence (looked up): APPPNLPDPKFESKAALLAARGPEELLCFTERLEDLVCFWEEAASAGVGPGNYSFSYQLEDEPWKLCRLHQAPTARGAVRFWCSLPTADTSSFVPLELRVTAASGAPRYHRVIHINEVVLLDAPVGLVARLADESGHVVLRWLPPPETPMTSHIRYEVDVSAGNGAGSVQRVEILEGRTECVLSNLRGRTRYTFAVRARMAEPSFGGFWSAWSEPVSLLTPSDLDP

[6] = biological target: T6, rHuman Notch-1/Fc Chimera, CF (R&D Systems Cat#3647-TK) (human, UniProt P46531 19-526); experiment: as above
T6 construct: Bought Fc chimera; Fc part of the bought chimera not given

[7] = biological target: T7, rHuman CD44/Fc Chimera, CF (R&D Systems Cat#3660-CD) (human, UniProt P16070 21-220); experiment: as above
T7 construct: Bought Fc chimera; Fc part of the bought chimera not given

[8] = biological target: T8, Recombinant Human DLL4 (R&D Systems Cat#1506-D4/CF) (human, UniProt Q9NR61 27-524); experiment: as above
T8 construct: Bought recombinant protein; also called delta-like protein 4; rHuman DLL4

[9] = biological target: T9, rHuman P-Cadherin/Fc Chimera, CF (R&D Systems Cat#861-PC) (human, UniProt P22223 108-654); experiment: as above
T9 construct: Bought Fc chimera; Fc part of the bought chimera not given

[10] = biological target: T10, rHuman IGF-1 sR (IGF-1 sR), CF (R&D Systems Cat#391-GR) (human, UniProt P08069 31-932); experiment: as above
T10 construct: Bought soluble receptor; also called insulin-like growth factor-1 soluble receptor

[11] = biological target: T11, rHuman ErbB2/Fc Chimera, CF (R&D Systems Cat#1129-ER) (human, UniProt P04626 23-652); experiment: as above
T11 construct: Bought Fc chimera; also called human epidermal growth factor 2 receptor; Fc part of the bought chimera not given

[12] = biological target: T5, rHuman Erythropoietin R/Fc Chimera, CF …; experiment: Multispot ECL (MSD) titration; antigen spotted on plate; Fab 14.5 nM; blank spot 117
[13] = biological target: T6, rHuman Notch-1/Fc Chimera, CF (R&D …); experiment: as above
[14] = biological target: T7, rHuman CD44/Fc Chimera, CF (R&D Systems …); experiment: as above
[15] = biological target: T8, Recombinant Human DLL4 (R&D Systems …); experiment: as above
[16] = biological target: T9, rHuman P-Cadherin/Fc Chimera, CF (R&D …); experiment: as above
[17] = biological target: T10, rHuman IGF-1 sR (IGF-1 sR), CF (R&D …); experiment: as above
[18] = biological target: T11, rHuman ErbB2/Fc Chimera, CF (R&D …); experiment: as above

B1: Fab VH1-46_IGHD6-13*01_IGHJ4*01 & B3_IGKJ1*01 (Fab, V domains shown)
VH: QVQLVQSGAEVKKPGASVKVSCKASGYTFTSYYMHWVRQAPGQGLEWMGIINPSGGSTSYAQKFQGRVTMTRDTSTSTVYMELSSLRSEDTAVYYCAREGYSSSWYDYFDYWGQGTLVTVSS
VL: not shown
notes: Germline Fab made in E. coli; VH was cloned into Plasmid A (CH1, His6 and Flag tags) and the kappa VL into Plasmid C (kappa CL)
Q: What does the source list for B1?
A: ECL signal [1]: 9240; ECL signal [2]: 802; ECL signal [3]: 654; ECL signal [4]: 912

B2: Fab VH1-46_IGHD6-13*01_IGHJ4*01 & O1_IGKJ1*01 (Fab, V domains shown)
VH: QVQLVQSGAEVKKPGASVKVSCKASGYTFTSYYMHWVRQAPGQGLEWMGIINPSGGSTSYAQKFQGRVTMTRDTSTSTVYMELSSLRSEDTAVYYCAREGYSSSWYDYFDYWGQGTLVTVSS
VL: DIVMTQTPLSLPVTPGEPASISCRSSQSLLDSDDGNTYLDWYLQKPGQSPQLLIYTLSYRASGVPDRFSGSGSGTDFTLKISRVEAEDVGVYYCMQRIEFPSWTFGQGTKVEIKR
notes: Germline library Fab expressed in E. coli; VH was cloned into Plasmid A (CH1 constant region, His6 and Flag tags); The kappa VL was cloned into Plasmid C (kappa CL)
Q: Which results are given for B2?
A: ECL signal [5]: 3010; ECL signal [6]: 2210; ECL signal [7]: 1920; ECL signal [8]: 8160; ECL signal [9]: 2440; ECL signal [10]: 1920; ECL signal [11]: 2220; ECL signal [12]: 660; ECL signal [13]: 317; ECL signal [14]: 212; ECL signal [15]: 1150; ECL signal [16]: 277; ECL signal [17]: 234; ECL signal [18]: 274
